One block for each sequence: values may come before it.
Legend:
HLA-A*01:01 = test: IEDB peptide-MHC binding, purified MHC/direct/fluorescence; filed as Kd, often an IC50 or EC50 that approximates it; ≥ and ≤ were set here for values at or beyond the usual limits of such assays
HLA-A*02:01 = test: as above
HLA-A*11:01 = test: as above
HLA-A*26:03 = test: as above; settings: source organism: Variola virus
HLA-A*31:01 = test: as above
HLA-A*68:02 = test: as above
HLA-A*69:01 = test: as above
HLA-B*07:02 = test: as above
HLA-B*08:01 = test: as above
HLA-B*08:03 = test: as above
HLA-B*15:01 = test: as above
HLA-B*15:02 = test: as above
HLA-B*15:09 = test: as above
HLA-B*15:17 = test: as above
HLA-B*27:05 = test: as above
HLA-B*46:01 = test: as above
HLA-B*48:01 = test: as above
HLA-B*57:01 = test: as above
HLA-B*58:01 = test: as above
HLA-A*26:01 [1] = test: IEDB peptide-MHC binding, purified MHC/competitive/fluorescence; filed as Kd, often an IC50 or EC50 that approximates it; ≥ and ≤ were set here for values at or beyond the usual limits of such assays; settings: source organism: Variola virus
HLA-A*30:01 = test: as above
HLA-B*73:01 = test: IEDB peptide-MHC binding, purified MHC/direct/fluorescence; filed as Kd, often an IC50 or EC50 that approximates it; ≥ and ≤ were set here for values at or beyond the usual limits of such assays; settings: source organism: Homo sapiens
HLA-A*32:07 = test: IEDB peptide-MHC binding, purified MHC/competitive/fluorescence; filed as Kd, often an IC50 or EC50 that approximates it; ≥ and ≤ were set here for values at or beyond the usual limits of such assays; settings: source organism: Homo sapiens
HLA-B*15:42 = test: as above
HLA-B*45:06 = test: as above
HLA-B*83:01 = test: as above
HLA-A*03:01 = test: IEDB peptide-MHC binding, purified MHC/direct/fluorescence; filed as Kd, often an IC50 or EC50 that approximates it; ≥ and ≤ were set here for values at or beyond the usual limits of such assays
HLA-A*26:01 [2] = test: as above; settings: source organism: Salmonella enterica
HLA-B*35:01 = test: as above; settings: source organism: Salmonella enterica subsp. enterica serovar Typhimurium
HLA-B*40:01 = test: as above; settings: source organism: Salmonella enterica subsp. enterica serovar Typhimurium
HLA-B*44:02 = test: as above; settings: source organism: Salmonella enterica
HLA-C*06:02 = test: as above; settings: source organism: Yersinia pestis Nepal516
HLA-C*08:02 = test: as above; settings: source organism: Yersinia pestis Nepal516
HLA-A*03:19 = test: IEDB peptide-MHC binding, purified MHC/competitive/fluorescence; filed as Kd, often an IC50 or EC50 that approximates it; ≥ and ≤ were set here for values at or beyond the usual limits of such assays; settings: source organism: Yersinia pestis Nepal516
HLA-A*68:23 = test: as above; settings: source organism: Yersinia pestis Nepal516
HLA-A*26:02 = test: IEDB peptide-MHC binding, purified MHC/direct/fluorescence; filed as Kd, often an IC50 or EC50 that approximates it; ≥ and ≤ were set here for values at or beyond the usual limits of such assays; settings: source organism: Escherichia coli O157:H7 str. EC869
HLA-B*39:01 = test: as above; settings: source organism: Escherichia coli O157:H7 str. EC869
HLA-C*12:03 = test: as above; settings: source organism: Escherichia coli O157:H7 str. EDL933
[3] = source organism: Salmonella enterica
[4] = source organism: Yersinia pestis
[5] = source organism: Yersinia pestis Nepal516
[6] = source organism: Escherichia coli O157:H7
[7] = source organism: Escherichia coli O157:H7 str. EC869

Sequence: ILQDRIRMY
Kd (HLA-A*01:01; source organism: Cowpox virus): ≥ 20 µM | Kd (HLA-A*02:01; source organism: Cowpox virus): ≥ 20 µM | Kd (HLA-A*11:01; source organism: Cowpox virus): ≥ 20 µM | Kd (HLA-A*26:03): ≥ 20 µM | Kd (HLA-A*31:01; source organism: Cowpox virus): ≥ 20 µM | Kd (HLA-A*68:02; source organism: Cowpox virus): ≥ 20 µM | Kd (HLA-A*69:01; source organism: Cowpox virus): ≥ 20 µM | Kd (HLA-B*07:02; source organism: Cowpox virus): ≥ 20 µM | Kd (HLA-B*08:01; source organism: Variola virus): ≥ 20 µM | Kd (HLA-B*08:03; source organism: Variola virus): ≥ 20 µM | Kd (HLA-B*15:01; source organism: Cowpox virus): 0.126 µM | Kd (HLA-B*15:02; source organism: Variola virus): 0.02 µM | Kd (HLA-B*15:09; source organism: Variola virus): ≥ 20 µM | Kd (HLA-B*15:17; source organism: Cowpox virus): 0.737 µM | Kd (HLA-B*27:05; source organism: Cowpox virus): ≥ 20 µM | Kd (HLA-B*46:01; source organism: Cowpox virus): ≥ 20 µM | Kd (HLA-B*48:01; source organism: Cowpox virus): ≥ 20 µM | Kd (HLA-B*57:01; source organism: Cowpox virus): ≥ 20 µM | Kd (HLA-B*58:01; source organism: Cowpox virus): ≥ 20 µM | Kd (HLA-A*26:01 [1]): ≥ 20 µM | Kd (HLA-A*30:01; source organism: Variola virus): ≥ 20 µM

Kd (HLA-B*73:01): ≥ 20 µM | Kd (HLA-A*32:07): 3.39 µM | Kd (HLA-B*15:42; source organism: Homo sapiens): ≥ 5 µM | Kd (HLA-B*45:06; source organism: Homo sapiens): ≥ 5 µM | Kd (HLA-B*83:01; source organism: Homo sapiens): ≥ 5 µM
Sequence: MAWLFFWAI

Sequence: MQQSGDEAF
Kd (HLA-A*01:01; [3]): ≥ 20 µM | Kd (HLA-A*02:01; [3]): ≥ 20 µM | Kd (HLA-A*03:01; [3]): ≥ 20 µM | Kd (HLA-A*11:01; [3]): ≥ 20 µM | Kd (HLA-A*26:01 [2]): ≥ 20 µM | Kd (HLA-A*31:01; [3]): ≥ 20 µM | Kd (HLA-A*69:01; [3]): ≥ 20 µM | Kd (HLA-B*07:02; [3]): ≥ 20 µM | Kd (HLA-B*08:01; [3]): ≥ 20 µM | Kd (HLA-B*15:01; source organism: Salmonella enterica subsp. enterica serovar Typhimurium): 0.2 µM | Kd (HLA-B*15:02; source organism: Salmonella enterica subsp. enterica serovar Typhimurium str. LT2): 0.032 µM | Kd (HLA-B*27:05; [3]): ≥ 20 µM | Kd (HLA-B*35:01): 0.147 µM | Kd (HLA-B*40:01): 1.01 µM | Kd (HLA-B*44:02): ≥ 20 µM | Kd (HLA-B*46:01; [3]): ≥ 20 µM | Kd (HLA-B*58:01; [3]): ≥ 20 µM

Sequence: TVYPKTHYV
Kd (HLA-A*02:01; [4]): 0.0415 µM | Kd (HLA-A*03:01; [4]): 4.18 µM | Kd (HLA-A*11:01; [4]): 0.048 µM | Kd (HLA-A*31:01; [4]): 0.178 µM | Kd (HLA-A*69:01; [4]): 0.0114 µM | Kd (HLA-B*15:01; [4]): 2.01 µM | Kd (HLA-B*58:01; [4]): 3.63 µM | Kd (HLA-C*06:02): 0.035 µM | Kd (HLA-C*08:02): ≥ 20 µM | Kd (HLA-A*03:19): 0.201 µM | Kd (HLA-A*68:23): ≤ 0.0001 µM | Kd (HLA-B*15:42; [5]): ≥ 5 µM | Kd (HLA-B*45:06; [5]): ≥ 5 µM | Kd (HLA-B*83:01; [5]): ≥ 5 µM

Kd (HLA-A*01:01; [6]): ≥ 20 µM | Kd (HLA-A*02:01; [6]): ≥ 20 µM | Kd (HLA-A*03:01; [6]): ≥ 20 µM | Kd (HLA-A*11:01; [6]): ≥ 20 µM | Kd (HLA-A*26:02): ≥ 20 µM | Kd (HLA-A*31:01; [6]): ≥ 20 µM | Kd (HLA-A*68:02; [6]): ≥ 20 µM | Kd (HLA-A*69:01; [6]): ≥ 20 µM | Kd (HLA-B*07:02; [6]): ≥ 20 µM | Kd (HLA-B*08:01; [7]): ≥ 20 µM | Kd (HLA-B*08:03; [7]): ≥ 20 µM | Kd (HLA-B*15:01; [6]): 0.01 µM | Kd (HLA-B*15:02; [6]): ≥ 20 µM | Kd (HLA-B*15:09; [7]): ≥ 20 µM | Kd (HLA-B*15:17; [6]): ≥ 20 µM | Kd (HLA-B*27:05; [6]): ≥ 20 µM | Kd (HLA-B*39:01): ≥ 20 µM | Kd (HLA-B*46:01; [6]): ≥ 20 µM | Kd (HLA-B*48:01; [6]): ≥ 20 µM | Kd (HLA-B*57:01; [6]): ≥ 20 µM | Kd (HLA-B*58:01; [6]): ≥ 20 µM | Kd (HLA-C*12:03): 0.204 µM | Kd (HLA-A*30:01; source organism: Escherichia coli O157:H7 str. EDL933): ≥ 20 µM
Sequence: YQAFRTKVH
